This assay addresses T1, retinal guanylate cyclase 1 (mouse (endogenous in retina), UniProt P52785 55-1108).
T1 construct: retinal guanylate cyclase 1 (GC-1), mouse, endogenous in the retina; Endogenous protein precipitated by the anti-GC-1 antibody 1S4 and detected by Western blotting; also called GC-1; RetGC1
T1 sequence (looked up): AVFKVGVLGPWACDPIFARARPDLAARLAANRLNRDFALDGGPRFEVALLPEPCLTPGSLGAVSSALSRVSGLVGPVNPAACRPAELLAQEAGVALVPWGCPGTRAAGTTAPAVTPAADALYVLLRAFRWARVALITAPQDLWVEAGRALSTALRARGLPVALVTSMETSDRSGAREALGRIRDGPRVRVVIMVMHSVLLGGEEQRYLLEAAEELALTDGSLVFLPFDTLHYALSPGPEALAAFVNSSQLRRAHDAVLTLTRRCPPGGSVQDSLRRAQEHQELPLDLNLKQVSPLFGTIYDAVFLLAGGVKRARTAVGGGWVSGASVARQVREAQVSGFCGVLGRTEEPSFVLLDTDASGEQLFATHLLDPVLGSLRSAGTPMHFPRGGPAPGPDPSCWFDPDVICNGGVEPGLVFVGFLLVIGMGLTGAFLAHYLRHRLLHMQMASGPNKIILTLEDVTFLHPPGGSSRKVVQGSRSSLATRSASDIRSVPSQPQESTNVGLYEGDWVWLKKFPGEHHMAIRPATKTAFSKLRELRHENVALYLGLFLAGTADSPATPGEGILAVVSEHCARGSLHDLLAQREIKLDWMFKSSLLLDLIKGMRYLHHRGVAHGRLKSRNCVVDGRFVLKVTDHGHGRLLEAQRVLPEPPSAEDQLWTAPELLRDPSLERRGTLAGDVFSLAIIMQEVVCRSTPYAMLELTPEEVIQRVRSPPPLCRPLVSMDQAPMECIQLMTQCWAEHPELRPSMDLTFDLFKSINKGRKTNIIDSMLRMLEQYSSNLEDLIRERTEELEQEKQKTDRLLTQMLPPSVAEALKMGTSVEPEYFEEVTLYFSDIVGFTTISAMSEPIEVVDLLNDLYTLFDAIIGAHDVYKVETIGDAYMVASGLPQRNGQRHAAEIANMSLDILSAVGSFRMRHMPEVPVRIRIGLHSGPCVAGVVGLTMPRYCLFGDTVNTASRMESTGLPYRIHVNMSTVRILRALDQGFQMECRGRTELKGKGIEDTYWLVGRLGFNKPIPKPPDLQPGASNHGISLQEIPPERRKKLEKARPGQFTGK
Briefly: co-IP; Rho+/- mouse retinal lysate; anti-GC-1 antibody 1S4 (0.2 μg), minimal amount (5 μl) of protein A/G magnetic beads; eluate analysed by Western blotting for GC-1 and rhodopsin; control: non-immune mouse IgG. The note with it: partners not purified. A general note: In western blotting, separated proteins are transferred to a membrane and probed.

B1: rhodopsin (receptor, mouse (endogenous in retina), UniProt P15409 1-348, looked up)
chain: MNGTEGPNFYVPFSNVTGVVRSPFEQPQYYLAEPWQFSMLAAYMFLLIVLGFPINFLTLYVTVQHKKLRTPLNYILLNLAVADLFMVFGGFTTTLYTSLHGYFVFGPTGCNLEGFFATLGGEIALWSLVVLAIERYVVVCKPMSNFRFGENHAIMGVVFTWIMALACAAPPLVGWSRYIPEGMQCSCGIDYYTLKPEVNNESFVIYMFVVHFTIPMIVIFFCYGQLVFTVKEAAAQQQESATTQKAEKEVTRMVIIMVIFFLICWLPYASVAFYIFTHQGSNFGPIFMTLPAFFAKSSSIYNPVIYIMLNKQFRNCMLTTLCCGKNPLGDDDASATASKTETSQVAPA
notes: rhodopsin, mouse, endogenous in the retina; Endogenous protein precipitated by, or detected with, the anti-rhodopsin antibody 1D4
As for B1, the “fold of rhodopsin precipitation with anti-GC-1 antibody over non-specific background with non-immune IgG” value worked out at 6.5 fold.

Values taken from article PMC4709261, “Guanylate cyclase 1 relies on rhodopsin for intracellular stability and ciliary trafficking” (eLife, 2015).
